Experimental data reported in paper PMC2174359 (The Journal of Cell Biology, 2000).

Target: Sec13/31p complex (S. cerevisiae, UniProt Q04491 1-297; P38968 1-1273)
Test: co-sedimentation

Sec13/31p complex, sequence (Q04491 whole entry, chain 1 of 2): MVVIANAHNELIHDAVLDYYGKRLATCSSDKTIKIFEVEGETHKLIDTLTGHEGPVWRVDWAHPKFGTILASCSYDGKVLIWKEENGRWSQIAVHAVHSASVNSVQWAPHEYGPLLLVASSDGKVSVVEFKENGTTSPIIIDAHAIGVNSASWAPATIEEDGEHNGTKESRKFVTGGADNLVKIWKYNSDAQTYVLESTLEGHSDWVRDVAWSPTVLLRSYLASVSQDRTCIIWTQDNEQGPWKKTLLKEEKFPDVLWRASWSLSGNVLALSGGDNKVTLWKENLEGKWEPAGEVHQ
Sec13/31p complex, sequence (P38968 whole entry, chain 2 of 2): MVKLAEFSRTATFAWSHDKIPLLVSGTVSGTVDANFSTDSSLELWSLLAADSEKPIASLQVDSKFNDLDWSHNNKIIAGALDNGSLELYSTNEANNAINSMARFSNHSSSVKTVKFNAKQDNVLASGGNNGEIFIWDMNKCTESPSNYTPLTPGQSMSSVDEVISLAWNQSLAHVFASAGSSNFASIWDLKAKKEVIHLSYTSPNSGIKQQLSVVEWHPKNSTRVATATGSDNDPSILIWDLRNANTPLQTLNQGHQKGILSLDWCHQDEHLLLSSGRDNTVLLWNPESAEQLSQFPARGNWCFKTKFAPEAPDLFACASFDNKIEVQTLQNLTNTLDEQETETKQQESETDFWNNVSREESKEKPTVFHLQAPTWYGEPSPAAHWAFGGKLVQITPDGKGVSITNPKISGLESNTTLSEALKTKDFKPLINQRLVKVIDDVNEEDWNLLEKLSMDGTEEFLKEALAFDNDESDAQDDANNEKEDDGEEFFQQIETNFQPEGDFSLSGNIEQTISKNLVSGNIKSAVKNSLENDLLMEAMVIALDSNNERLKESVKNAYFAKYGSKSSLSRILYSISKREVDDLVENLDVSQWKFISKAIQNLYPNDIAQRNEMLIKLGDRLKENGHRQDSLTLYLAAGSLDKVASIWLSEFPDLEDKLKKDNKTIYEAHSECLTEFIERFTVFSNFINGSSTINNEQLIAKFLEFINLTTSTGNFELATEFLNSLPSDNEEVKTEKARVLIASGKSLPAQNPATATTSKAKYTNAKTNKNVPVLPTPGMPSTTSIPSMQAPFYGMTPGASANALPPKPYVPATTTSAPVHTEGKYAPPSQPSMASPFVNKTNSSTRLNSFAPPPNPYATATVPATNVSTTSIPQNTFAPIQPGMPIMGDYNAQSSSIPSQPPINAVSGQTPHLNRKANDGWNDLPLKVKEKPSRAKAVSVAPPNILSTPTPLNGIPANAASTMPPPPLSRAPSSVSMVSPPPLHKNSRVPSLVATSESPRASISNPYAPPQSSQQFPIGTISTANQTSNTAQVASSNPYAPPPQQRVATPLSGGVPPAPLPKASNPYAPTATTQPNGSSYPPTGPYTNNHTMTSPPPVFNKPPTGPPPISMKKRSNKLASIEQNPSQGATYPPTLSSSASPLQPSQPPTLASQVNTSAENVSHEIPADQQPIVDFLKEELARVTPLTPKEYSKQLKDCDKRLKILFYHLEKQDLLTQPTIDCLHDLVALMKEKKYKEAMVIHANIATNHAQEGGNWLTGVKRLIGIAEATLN

binding result: binds
B1: Lst1p, His6-tagged (LST1-His6) (natural protein, S. cerevisiae, UniProt P38810 1-929, looked up)
chain: MSQQNILAASVSALSLDESTVHTGGASSKKSRRPHRAYHNFSSGTVPTLGNSPYTTPQLNQQDGFQQPQAFTPKQFGGFNNGSGSVMSTPVMVSQERFGASEASSPYGQSMLDMTAPQPTSHIVPTQRFEDQAQYLQRSFETCRDSVPPLPTTQFYCVDQGSCDPHLMSLSMYNIPESEHLRAATKLPLGLTIQPFSTLTPNDAEVPTIPLPMDGTPLRCRRCRAYANPKFQFTYDSSVICNICRVKMQVPGEHFAPMGPNGQRSDLNEKSELLHGTVDFLVPSIYNAIQEKELLPLHYVFLIDVSLLANENGSSLAMVEGVRSCIEYISDFQPNCEVAIIVYDNKLRFFNLRPDLDNAQEYIVSELDDVFLPFYNGLFVKPGNSMKIINDTLIKISGYISTDKYSHVPQVCYGSALQAAKLALDTVTGGQGGKIICSLNSLPTIGNGNLSLKRDNAHIAHVKCDNGFYKKLASDFLKSYISLDLYVTNAGFIDMATVGHPVEMTSGILKYYPHFQQETDAFTLVNDMVTNVSNIVGYQALLKVRCSTGLSVEQYYCDSSDNTDHDPIIPVLTRDTTLDVLLKYDSKIKTGTDVHFQTALLYTDIDGVRKVRSINTSGAVSNNIREIFKFINQNPVMRIMIKDVIKTLGDCDFVKIRRLIDDKMVEILTQYRGLVSSNSSTQLILPDSIKTLPAYMLAFEKSELMKPNAQSTRGNERIYDLLKYDSLNSAQLCYKLYPQIVPFHVLLEETDLTFYDANDKLLQINSSSINNLSVRASHSNFINGGCYLIFQGDTIYLWFNENTNRMLLQDLLSVDESLPVSQISLFSGTLPETGTSINQKASNVIKNWQQVVNKSSLPLVLLRPNVDQYYSNVMSQLLCEDKTVNRIESYDNYLVIMHKKIQEKLQKDDFIKVSTAATHENIHQKFVQF
